US10653749B2, “Targeting GIV-GEF-GI signaling for treating diverse diseases” (The Regents of the University of California, priority 2015, dated 2020)
Residue numbers refer to the chain shown, from its start. In names and notes the source's numbering stands. Entries after “also recorded” stand apart in the source; their conditions may differ.

Tests used:
[1] = biological target: T1, Gαi1-YFP / CFP-Gβ1 / Gγ2 heterotrimer (Gi) (Homo sapiens, UniProt P63096); experiment: FRET assay of Gi heterotrimer dissociation after EGF in GIV-depleted HeLa cells; type: cell-based
T1 construct: expressed in transfected cells; host or cells: HeLa cells stably depleted of GIV by shRNA
Experimental: HeLa cells stably depleted of GIV by shRNA were grown to 60-70% confluence in sterile 35 mm MatTek glass bottom dishes. One microgram each of various donor and acceptor plasmid constructs were transfected with Trans-IT-LT1 transfection reagent (Minis Bio LLC) using manufacturer's protocol. Cells were starved overnight in serum-free DMEM (Gibco), transduced the following morning with TAT proteins for 30 min, washed with PBS and subsequently the media was switched to DMEM without phenol red before live cell imaging. EGF stimulation was carried out ˜4 h after TAT transduction. Fluorescence microscopy studies were conducted on single cells in mesoscopic regime to avoid inhomogeneities from samples as previously rationalized by Midde et al. (55-57). Olympus FV1000 inverted confocal laser scanning microscope was used for live cell FRET imaging (UCSD-Neuroscience core facility). The microscope is stabilized on a vibration proof platform, caged in temperature controlled (37° C.) and CO2 (5%) supplemented chamber. A 60×1.49 N. An oil immersed objective designed to minimize chromatic aberration and enhance resolution for 405-605 nm imaging was used. Olympus Fluoview inbuilt software was used for data acquisition through the method of sensitized emission. A 405 nm laser diode was used to excite ECFP and 515 nm Argon-ion laser was used to excite EYFP. The bandwidth of spectral emission was adjusted through grating to minimize bleed through. Enhanced CFP emission was collected from 425 to 500 nm and EYFP emission was collected through 535-600 nm and passed through a […] confocal pinhole before being sent to photomultiplier tube to reject out of plane focused light. Every field of view is imaged sequentially through ECFPex/ECFPem, ECFPex/EYFPem and EYFPex/EYFPem (3 excitation and emission combinations) and saved as donor, transfer and acceptor image files through an inbuilt wizard.
To obtain the FRET images and efficiency of energy transfer values a RiFRET plugin in Image J software was used (58). FRET images were obtained by pixel-by-pixel ratiometric intensity method and efficiency of transfer was calculated by the ratio of intensity in transfer channel to the quenched (corrected) intensity in the donor channel. Cells transfected with CFP and YFP alone were imaged under all three previously mentioned excitation and emission combinations and are used to correct for cross-talk. Furthermore, untransfected cells and a field of view without cells were imaged to correct for background, autofluorescence and light scattering. Cells chosen for imaging were ensured for identical expression of donor and acceptor probes by the photons collected in individual channels.

[2] = system: 6-mm punch biopsy dermal wounds; experiment: Dermal wound healing in mice, topical TAT proteins; type: in vivo; conditions: for wound healing: topical 15 μg (~500 pmol) every 24 h for 8 d, vs TAT control
Experimental: Under general anesthesia, two 6-mm diameter punch biopsy wounds were created on the shaved dorsal surface of 8 wk old female C56BL/6 wild-type mice under sterile conditions. Wounds were then treated with 15 μg (˜500 pmol) of TAT proteins every 24 h for 8 d after injury, and photographed every 48 h over that period, and wound area was manually traced by placing a transparent film over the wound and tracing the outline with a permanent marker. To measure the wound area, the edges of the dermis were determined as the wound edge. […] The tracing was then scanned and measured using an image analysis program (NIH Image J Software). Five mice, each with 2 wounds (a total of 10 wounds) were studied in each treatment arm, and their rate of closure was analyzed. These studies were carried out in a blinded manner such that aliquots of purified TAT proteins were prepared and color coded before their arrival at the animal facility. Consequently, the personnel who performed dermal punch biopsies, daily treatment with TAT proteins, photography and measurement of wound area was blinded to the identity of the compound. The study protocol (FIG. 4B) included standard wound care as per IACUC guidelines.

[3] = system: GIV, IRS1 and Akt phosphorylation; experiment: Metabolic insulin signaling in L6 cells by immunoblotting; type: cell-based, rat; conditions: TAT-transduced L6 myotubes; for phosphorylation of Akt in response to insulin: pS473; for phosphorylation of IRS1 in response to insulin: pY632-IRS1
Experimental: Transfection was carried out with GeneJuice (Novagen) for DNA plasmids or Oligofectamine (Invitrogen) for siRNA oligos according to manufacturer's protocols. Silencer negative Control scrambled (Scr) siRNA used as control was purchased from Ambion and the previously validated (Enomoto et al., 2005) GIV siRNA sequence used was custom-ordered from Dharmacon. For TAT-construct transduction, cells were incubated with 300-800 nM of the TAT-proteins for 30 min at 37° C. prior to three washes with PBS and addition of fresh growth media. For assays involving insulin (Novagen) stimulation of TAT-treated cells, such stimulation was carried out 90 min after transduction.
Unless otherwise indicated, serum starvation of cells for use in experiments involving insulin stimulation was carried out by growing cells overnight in the presence of no serum (i.e., 0% FBS) in the case of Cos7 and L6 cells, or in the presence of 0.2% FBS in the case of HeLa cells. To induce IR, cells were pre-treated with Sodium Palmitate (PA; Sigma-Aldrich) (0.5 mM, stock solution at 5 mM/5% FFA-free BSA in ethanol) or vehicle control (5% FFA-free BSA in ethanol) for 16 h. To reverse IR with TZDs, cells were treated with 50 μM Pioglitazone (Pio) (Sigma-Aldrich) or DMSO (vehicle control) for 18 h prior to stimulation with 100 nM insulin. Treatment with PKCθ pseudo-substrate inhibitor (Santa Cruz Biotechnologies) was performed at 10 μM for 16 h.
Protein samples for immunoblotting were run on SDS/PAGE gels and transferred onto PVDF membranes (Millipore). Membranes were blocked with PBS containing 5% non-fat milk (or with 5% BSA when probing for phosphorylated proteins) before incubation with primary antibodies. GIV was detected using rabbit anti-GIV coiled-coil (Millipore) (1:500); GIV-CT (Santa Cruz Biotechnologies) (1:500); phospho-Tyr1764-GIV (1:500) and phospho-Ser1689-GIV (21st Century Biochemicals) (1:250) antibodies. Other antibodies used in this work include rabbit polyclonal antibodies against Gαi3 (1:333), pan-GP (1:250) and phospho-IRS1 (1:500) from Santa Cruz Biotechnologies; and phospho-Akt (1:250); total Akt (1:250); phospho-ERK (1:250); phospho-AS160 (1:250); total InsRβ (1:500) and total IRS1 (1:500) from Cell signaling. Mouse monoclonal Abs against phospho-InsRβ (1:250), His (1:1000), β-tubulin (1:1000), GFP (1:500) from Santa Cruz Biotechnologies, and control IgG (Bio-Rad Laboratories) were commercially obtained. Goat anti-rabbit and goat anti-mouse Alexa Fluor 680 or IRDye 800 F(ab′)2 secondary antibodies were purchased from Li-Cor Biosciences. Images were processed with ImageJ software (NIH) and assembled as figure panels using Photoshop and Illustrator software (Adobe).

T1 sequence (P63096 2-354 limits assumed, one chain of several): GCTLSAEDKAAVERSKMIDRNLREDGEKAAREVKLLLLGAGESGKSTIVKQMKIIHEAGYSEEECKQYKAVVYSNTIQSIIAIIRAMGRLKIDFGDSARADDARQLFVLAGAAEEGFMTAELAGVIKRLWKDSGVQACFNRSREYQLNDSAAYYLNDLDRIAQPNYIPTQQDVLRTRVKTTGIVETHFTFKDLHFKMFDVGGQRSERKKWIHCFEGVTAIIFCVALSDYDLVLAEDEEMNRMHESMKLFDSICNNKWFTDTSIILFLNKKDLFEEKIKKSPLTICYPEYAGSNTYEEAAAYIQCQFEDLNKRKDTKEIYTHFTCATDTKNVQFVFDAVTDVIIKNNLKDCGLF

B1: TAT-GIV-CT-WT: Recombinant cell-permeable fusion of TAT-PTD, His and HA tags, linker and human GIV C-terminus (aa 1660-1870), wild type; SEQ ID NO: 2 (protein)
chain: MRGSHHHHHHGMASMTGGQQMGRDLYDDDDKDRWGSKLGYGRKKRRQRRRGGSTMSGYPYDVPDYAGSMGGSGHSGETLESRHHKIKTGSPGSEVVTLQQFLEESNKLTSVQIKSSSQENLLDEVMKSLSVSSDFLGKDKPVSCGLARSVSGKTPGDFYDRRTTKPEFLRPGPRKTEDTYFISSAGKPTPGTQGKIKLVKESSLSRQSKDSNPYATLPRASSVISTAEGTTRRTSIHDFLTKDSRLPISVDSPPAAADSNTTAASNVDKVQESRNSKSRSREQQSS
loss of FRET / dissociation of trimeric Gi in response to EGF ([1]; 50 nM EGF, 5 min): significant loss of FRET; also recorded: sufficient to trigger dissociation of trimeric Gi | FRET after EGF stimulation ([1]; 50 nM EGF, 5 min, p=0.0011): 0.15±0.07 | FRET before EGF stimulation ([1]; plasma membrane ROIs, t0): 0.22±0.04 | rate of wound healing relative to TAT-treated controls ([2]; topical 500 pmol daily): ~2 × the rate | time of wound healing relative to TAT-treated controls ([2]; topical 500 pmol daily): a day earlier | wound healing [2]: accelerated wound healing; also recorded: accelerates | phosphorylation of Akt in response to insulin [3]: enhancement | phosphorylation of IRS1 in response to insulin [3]: enhancement

B2: TAT-GIV-CT-FA: GEF-deficient F1685A mutant of the TAT-GIV-CT peptide, dominant-negative; SEQ ID NO: 3 (protein)
chain: B1 chain with F101A
loss of FRET / dissociation of trimeric Gi in response to EGF ([1]; 50 nM EGF, 5 min): No similar loss of FRET | loss of FRET / dissociation of trimeric Gi in response to EGF ([1]; 50 nM EGF, 5 min, listed as FA): not | wound healing ([2]; listed as FA): delayed wound healing; also recorded: retards | phosphorylation of Akt in response to insulin [3]: suppressed | phosphorylation of IRS1 in response to insulin [3]: suppressed
